{
  "source": "the DeepSol protein solubility set",
  "data": [
    {"assay": "soluble on expression in E. coli; label from the status in PepcDB or PDB records", "values": [
      {"sequence": "MALKGEGLQGLLGRGEARLGVGGEEAFQVKGGLLAEPRHGRMGSPVGVQGDLARGVGEGVLPGEHPVEDDPGGVDVSLGARGQAPDELGGQVGGGAQEKGLLETLLGGAREVKVQEAGLPGVHQDVLGLHVPVDQALFVHVGEGEEELVEDPHRLGKRGAFPHPAAELLPRGVGQEEGGAFLQVQGLEDGVEVGVGEPSPHPKLPVPAGAGLRGEELEGVGGAEGVKGQVDPGQGPAGQGPHHPVAAREGFAHQAHRPHYTLRKPGYHGPMRGLVLSGGGARGFAHIGALEVFVEAGLDFEVVAGASMGAIVGALFAAGRSPQEILEIARNTPWLGILGFSFREALFSRGRLRRYLAEHLPQDFADLKRRLVVTAVEVRSGRVVYLFQGDLVSAVLASAAHPLLLRPVRREGLLLFDGGVLDNLPVDAARFLGAEEVWAVDVTPERSVEKPPEGVLGLALRAVDLMQHHLTASRMALYAPEVYLRPELGEVAVQDFLRLEEAVEAGRKAAKRFLESRVGEV", "soluble on expression in E. coli": "soluble"},
      {"sequence": "MALKPTIYKFRIALSDMNNDYYDSKNLTIALHPSEKPQRMLARILAFCLNAQKDLEFTKGLSTTEEPDLWHVADDQSITHWIEIGEPEPDRIKKASRLAKQVKVYTYNTKAPVWWEKMSGKFSMLPVSVESFDYDAIDMICQHLDRGTNLSVMITGTSIFVDVNDQHVEVTVKELQSHDAP", "soluble on expression in E. coli": "not soluble"},
      {"sequence": "MALLERILARDNLITALKRVEANQGAPGIDGVSTDQLRDDVRAHWSTIRAQLLAGTYRPAPVRRVEIPKPGGGTRQLGIPTVVDRLIQQAILQELTPIFDPDFSPSSFGFRPGRNAHDAVRQAQGYIQEGYRYVVDMDLEKFFDRVNHDILMSRVARKVKDKRVLKLIRAYLQAGVMIEGVKVQTEEGTPQGGPLSPLLANILLDDLDKELEKRGLKFCRYADDCNIYVKSLRAGQRVKQSIQRFLEKTLKLKVNEEKSAVDRPWKRAFLGFSFTPERKARIRLAPRSIQRLKQRIRQLTNPNWSISMPERIHRVNQYVMGWIGYFRLVETPSVLQTIEGWIRRRLRLCQWLQWKRVRTRIRELRALGLKETAVMEIANTRKGAWRTTKTPQLHQALGKTYWTAQGLKSLTQRYFELRQG", "soluble on expression in E. coli": "not soluble"},
      {"sequence": "MALNDFHVSEPYTLGIELEMQVINPPGYDLSQDSSTLIDAVKPQLTAGEIKHDITESMLEMATGVCRDIDQAAAQLSAMQHVILQAASEHHLGICGGGTHPFQKWQRQEVCDNERYQRTLENFGYLIQQATVFGQHVHVGCANGDDAIYLLHGLSHFVPHFIALSAASPYMQGADTRFACARLNIFSAFPDNGPMPWVSNWQEFAGLFRRLSYTTMIDSIKDLHWDIRPSPAFGTVEVRVMDTPLTLDHAINMAGLIQATAHWLLTERPFKPQEQDYLLYKFNRFQACRYGLEGVLTDAYTGDRRRLADDTLRLLDNVTPSARKLGADSAIDALRLQVKKGGNEAQYMREFIADGGSLIGLVQKHCEIWAGQ", "soluble on expression in E. coli": "soluble"},
      {"sequence": "MALNGAEVDDFSWEPPTEAETKVLQARRERQDRISRLMGDYLLRGYRMLGETCADCGTILLQDKQRKIYCVACQELDSDVDKDNPALNAQAALSQAREHQLASASELPLGSRPAPQPPVPRPEHCEGAAAGLKAAQGPPAPAVPPNTDVMACTQTALLQKLTWASAELGSSTSLETSIQLCGLIRACAEALRSLQQLQHLEHHHHHH", "soluble on expression in E. coli": "not soluble"},
      {"sequence": "MALPKLTDEQRKEALAKAAEARKARAELKEQLKRSDITLKEVLDKASSDEIIGKTKVSALLESLPKVGKVKAKEIMEELEIAQTRRLRGLGDRQRRALLERFGYSED", "soluble on expression in E. coli": "not soluble"},
      {"sequence": "MALQVASAPHGSSEDSTSASLPANYPYHTRMRRNEYEKAKHDLQIELLKVQSWVKETGQRVVVLFEGRDAAGKGGTIKRFMEHLNPRGARIVALEKPSSQEQGQWYFQRYIQHLPTAGEMVFFDRSWYNRAGVERVMGFCSPLQYLEFMRQAPELERMLTNSGILLFKYWFSVSREEQLRRFISRRDDPLKHWKLSPIDIKSLDKWDDYTAAKQAMFFHTDTADAPWTVIKSDDKKRARLNCIRHFLHSLDYPDKDRRIAHEPDPLLVGPASRVIEEDEKVYAEAAAAPGHANLDIPA", "soluble on expression in E. coli": "not soluble"},
      {"sequence": "MALTSFLPAPTQLSQDQLEAEEKARSQRSRQTSLVSSRREPPPYGYRKGWIPRLLEDFGDGGAFPEIHVAQYPLDMGRKKKMSNALAIQVDSEGKIKYDAIARQGQSKDKVIYSKYTDLVPKEVMNADDPDLQRPDEEAIKEITEKTRVALEKSVSQKVAAAMPVRAADKLAPAQYIRYTPSQQGVAFNSGAKQRVIRMVEMQKDPMEPPRFKINKKIPRGPPSPPAPVMHSPSRKMTVKEQQEWKIPPCISNWKNAKGYTIPLDKRLAADGRGLQTVHINENFAKLAEALYIADRKAREAVEMRAQVERKMAQKEKEKHEEKLREMAQKARERRAGIKTHVEKEDGEARERDEIRHDRRKERQHDRNLSRAAPDKRSKLQRNENRDISEVIALGVPNPRTSNEVQYDQRLFNQSKGMDSGFAGGEDEIYNVYDQAWRGGKDMAQSIYRPSKNLDKDMYGDDLEARIKTNRFVPDKEFSGSDRRQRGREGPVQFEEDPFGLDKFLEEAKQHGGSKRPSDSSRPKEHEHEGKKRRKE", "soluble on expression in E. coli": "soluble"},
      {"sequence": "MALVIAGERSGVGKTTVTLTLLASLCRRSAIVQSFKVGPDYIDPMFHTYVTGRACRNLDPVLTSEAYVQQCFARHYQESEYALVEGVMGLFDGIGRQEAGGQGAGGRENNFSTSHSALTTDFASTAHVARLLDLPVVLVIDCSRLSGSVAAIAHGYCSFDPRIKMAGVVLNRVGSDRHLSLLQDALKPLQLPILGVLRRQDDITIPDRHLGLIPTAELPELNAVINRLADLGDTCFDWQNLLPLLQAKEVGGREQGAGSRGQGAGEAGEAGGELTARFSPNPQSPIPNPQSPVPHPPKIAVARDRAFNFYYQDNLDLLQQLGAELVFWSPLTDGELPSGVRGMYFGGGFPEVFASQLAENSSARDAVKQAILAGMPTIAECGGLMYLCEQIIDFEGQSWPMVGVLPTSAAMGGRLTLGYRRAVALQDSLLVNVGTHIYGHEFHRSRLITAPTQPLFETYRYDCPENMGCEGWGFPKNIHASYVHLHWGESGEIPRQFIQQCAYFGETIDLVHMYLEHHHHHH", "soluble on expression in E. coli": "not soluble"},
      {"sequence": "MAMWVFGYGSLIWKTGFPFDESLPGFIKGYRRVFHQGSTDHRGTPDFPGRTVTLEAAHEEHLEVREKQYDQKEYLDFFTDSNASEPAVAGVMVYIASPDKKSNNNYLGPAPLEDIAKQIVKAKGPSGPNRDYLFNLEEALAQLGFKDKHVTDLANQVRHILSESEELDIDATAATANNV", "soluble on expression in E. coli": "soluble"},
      {"sequence": "MANDEEFFIVRCRGPSSYRESVYKYLTGQPSDWNRNSVFLRNMHVGRAKNVKEIFNCILQTQPLPVVQPCHPVRQPRESFYSSHEHDPMDEVLLQEVKEEAHSLAFKGIPIETKGPTPSSTIMNPEVTLRDVLTFHKNIKRRPQETKPAKFDFSAMPSTSRLPPTSPKRYRQFAPPPISMKQSPKICAKTVSCPSTSEVKSPPKKMIIQKIQKHQEAPKPAKVPKIKGEKKKKDGRQDEQEEIDIELKLSKSTVSSQTLKRHNISFERKPQRGI", "soluble on expression in E. coli": "not soluble"},
      {"sequence": "MANEANPCPCDIGHKLEYGGMGHEVQVEHIKAYVTRSPVDAGKAVIVVQDIFGWQLPNTRYMADMIARNGYTTIVPDFFVGQEPWDPAGDWSTFPAWLKSRNARKVNREVDAVLRYLRQQCHAQKIGIVGFCWGGVVVHQVMTAYPDIRAGVSVYGIIRDSEDVYNLKNPTLFIFAENDTVIPLEQVSTLTQKLKEHCIVNYQVKTFSGQTHGFVHRKREDCSPADKPYIEEARRNLIEWLNKYV", "soluble on expression in E. coli": "not soluble"},
      {"sequence": "MANFPASLLILNGKSADNQPLREAITLLRDEGIQIHVRVTWEKGDAQRYVDEARRLGVETVIAGGGDGTINEVSTALIQIRDGVAPALGLLPLGTANDFATSAGIPEALDKALKLAIAGNAMEIDMAMVNDKTCFINMATGGFGTRITTETPEKLKAALGGVSYLIHGLMRMDTLTPDRCEIRGENFHWQGDALVIGIGNGRQAGGGQQLCPTALINDGLLQLRIFTGEELLPALFSTLTQSDDNPNIIDGASAWFDIHAPHEITFNLDGEPLSGQEFHIEVLPGALRCRLPPDCPLLR", "soluble on expression in E. coli": "soluble"}
    ]}
  ]
}
